Reference: patent US20190367613A1 (JOUNCE THERAPEUTICS, published 2019)

T1: Human ICOS (human, UniProt Q9Y6W8 21-199)
T1 sequence: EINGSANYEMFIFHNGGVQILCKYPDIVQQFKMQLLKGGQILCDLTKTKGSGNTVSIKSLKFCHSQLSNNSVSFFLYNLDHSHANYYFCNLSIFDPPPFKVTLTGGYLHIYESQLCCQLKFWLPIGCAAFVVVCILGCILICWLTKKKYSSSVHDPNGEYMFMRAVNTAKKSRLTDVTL

B1: JTX-2011 (antibody, V domains shown)
VH: EVQLVESGGGLVQPGGSLRLSCAASGFTFSDYWMDWVRQAPGKGLVWVSNIDEDGSITEYSPFVKGRFTISRDNAKNTLYLQMNSLRAEDTAVYYCTRWGRFGFDSWGQGTLVTVSS
VL: DIVMTQSPDSLAVSLGERATINCKSSQSLLSGSFNYLTWYQQKPGQPPKLLIFYASTRHTGVPDRFSGSGSGTDFTLTISSLQAEDVAVYYCHHHYNAPPTFGPGTKVDIKR
B2: M13 anti-ICOS detection antibody (antibody, V domains shown)
VH: EVQLQQSGAELVRPGAVVKLSCKASGFDIKDYYMHWVQQRPEQGLEWIGWIDPENGNAVYDPQFQGKASITADTSSNTAYLQLSSLTSEDTAVYYCASDYYGSKGYLDVWGAGTTVTVSS
VL: QIVLTQSPTIMSASPGEKVTITCSASSSVSYMHWFQQKPGTSPKLWIYSTSNLASGVPARFGGSRSGTSYSLTISRMEAEDAATYYCQQRSSYPFTFGSGTKLEIK
notes: also called 2M13; biotinylated M13 anti-ICOS detection antibody

How the values were obtained:
Human ICOS [1] = molecular target: T1, Human ICOS; experiment: cell-based or functional assay
Human ICOS [2] = molecular target: T1, Human ICOS; experiment: intracellular flow cytometry on permeabilized human PBMCs, streptavidin PE detection

Binder	intracellular IFNγ production in CD4+ T cells (flow cytometry, after tetanus toxoid stimulation) (Human ICOS [1]) [fold]	intracellular TNFα production in CD4+ T cells (flow cytometry, after tetanus toxoid stimulation) (Human ICOS [1]) [fold]	binding result (Human ICOS [2])
B1	4	4	–
B2	–	–	binds
